PMC4609290 (Molecular cell, 2015)

Key:
AF17PZP = test: Histone peptide pull-down with AF17PZP; type: binding, human; settings: biotinylated H3 peptides, Western blot
AF10PZP [1] = molecular target: T1, AF10PZP (Homo sapiens, UniProt P55197); test: Histone peptide pull-down with AF10PZP; type: binding; settings: biotinylated H3 peptides, Western blot; GST-AF10PZP
T1 sequence (P55197 18-208 isoform P55197-1): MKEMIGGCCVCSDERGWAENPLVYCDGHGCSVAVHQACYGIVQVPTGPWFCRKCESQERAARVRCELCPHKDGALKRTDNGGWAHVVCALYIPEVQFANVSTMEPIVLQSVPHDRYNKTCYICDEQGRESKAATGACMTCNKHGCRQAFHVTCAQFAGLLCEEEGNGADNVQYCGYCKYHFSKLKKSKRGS

JADE1PZP = test: Histone peptide pull-down with JADE1PZP; type: binding, human; settings: biotinylated H3 peptides, Western blot
AF10PZP [2] = molecular target: T1, AF10PZP; test: ITC binding of H3 peptides to AF10PZP; settings: standard deviation derived from nonlinear fitting
AF10PZP [3] = molecular target: T1, AF10PZP; test: Binding of minimal H3 peptide to the PZP domain; settings: Figure S1D

| Substance | binding to AF17PZP (peptide pull-down) (AF17PZP) | binding to AF10PZP (peptide pull-down) (AF10PZP [1]) | binding to JADE1PZP (peptide pull-down) (JADE1PZP) | Kd (AF10PZP [2]) | binding of minimal peptide to the PZP domain (AF10PZP [3]) |
| --- | --- | --- | --- | --- | --- |
| H3K27 acetylated: Acetylation of H3K27, H3 (aa 15-34) peptides | disrupted recognition | disrupted recognition |  |  |  |
| H3_1-21: peptide spanning amino acids 1-21 (H3_1-21; the very N-terminus of H3) | did not bind | did not bind | bound as expected |  |  |
| H3_15-34 di-methylation at K27: H3_15-34 peptide with di-methylation at K27 | abolished | abolished |  | could no longer be detected |  |
| H3(1-36) peptide spanning residues A21 to K27: minimal peptide, segment of H3(1-36) spanning residues A21 to K27 (ATKAARK; UniProt P68431 22-28, looked up, fragment) |  |  |  |  | sufficient for binding, though with weaker affinity than the longer peptide |
